Consider two sequences from publication PMC10597343.

This data set deals with T1, AcrR (Escherichia coli) (UniProt P0ACS9).
T1 sequence: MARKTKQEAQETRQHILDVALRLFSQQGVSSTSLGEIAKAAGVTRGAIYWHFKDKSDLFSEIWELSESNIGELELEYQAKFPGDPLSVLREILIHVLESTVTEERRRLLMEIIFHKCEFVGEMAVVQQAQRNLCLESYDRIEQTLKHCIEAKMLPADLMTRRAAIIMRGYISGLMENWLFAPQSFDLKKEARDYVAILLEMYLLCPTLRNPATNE
The data set is described as follows: EMSA. As to conditions: EMSA with LightShift Chemiluminescent EMSA Kit, AcrR 0, 0.4 and 1 uM, as in ref 35; buffer, salt, pH and temperature not stated.

As for “CTTGCCATGCGATTTCCTTTTATCTTTCGACACGTAAAACGAATACCGGGGTTATCGGTCTGAATTGCGCAAAGTTTACGTTTAATTGTTTTTTTTAATAGCGGGAATAAGGGGCAGAGAAAAGAGTATTTCGGCGACTAACAAAAAATGGCTGTTTTTGAAAAAAATTCTAAAGGTTGTTTTACGACAGACGATAACAGGGTTGACGGCGATTGAGCCGACGGGTGGAAACCCAATACGTAATCAACGA (double strand) [fliDSTp]”, the binding result is listed as “no binding”.

With “TGCAAGTAGTAAATATGACAAGTTGATGTCATAAATGTGTTTCAGCAACTCGGAGGTATGCATTATTCCCACCCAGAATAACCAACTTTATTTTTATGCGGTTTCACCGCACCCCGTGATGTCGCCGGGAAGCCCCGGTAAAAAATAATTAGCATTAGAATAGTTGCGAT (double strand) [flhDCpS2]”, the binding result is “no binding”.
